4 molecules from paper PMC3813506 (2013) can be followed below.

The target of data set [1] is Nupr1-Flag (pcDNA3-Nupr1-Flag) (UniProt O60356). Put plainly: proximity ligation; MiaPaCa-2 cells transfected with Nupr1-Flag and MSL1-V5, treated with cisplatin (5 µM or 10 µM) for 24 h; DuoLink kit; also combined with γ-H2AX staining.
Data set [2] has as its target T1, Nupr1 (Homo sapiens, UniProt O60356).
T1 chain: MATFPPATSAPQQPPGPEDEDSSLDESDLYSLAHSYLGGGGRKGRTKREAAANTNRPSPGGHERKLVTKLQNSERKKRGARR
Put plainly: ITC; 40 µM MSL1 injected into 4 µM Nupr1 in the cell; 25°C, 10 mM acetate buffer pH 4.5; single-site binding model; heat of dilution of MSL1 used as reference. A general note: In ITC the heat of successive injections is recorded.

Data set [3] has as its system Nupr1. Put plainly: ITC. Conditions: apparent; dH -23 kcal/mol; DNA MW assumed (10^4 kDa); chemically damaged with etoposide; ITC: 10 mM acetate pH 4.5, 25 C, 0.03 mg/ml damaged DNA; CD/fluorescence: 50 mM acetate pH 4.5, 25 C, 20 uM protein; agarose gel: 2%, 1x TAE; NMR 25 C.
For data set [4], the system named is TRX-MSL1;Nupr1 (Homo sapiens;). Put plainly: ITC. The note with it: MSL1 titrated into preformed Nupr1 + damaged-DNA complex; dH 28 kcal/mol; chemically damaged with etoposide; ITC: 10 mM acetate pH 4.5, 25 C, 0.03 mg/ml damaged DNA; CD/fluorescence: 50 mM acetate pH 4.5, 25 C, 20 uM protein; agarose gel: 2%, 1x TAE; NMR 25 C.
The test system of data set [5] is T2, TRX-MSL1 (Homo sapiens).
T2 sequence: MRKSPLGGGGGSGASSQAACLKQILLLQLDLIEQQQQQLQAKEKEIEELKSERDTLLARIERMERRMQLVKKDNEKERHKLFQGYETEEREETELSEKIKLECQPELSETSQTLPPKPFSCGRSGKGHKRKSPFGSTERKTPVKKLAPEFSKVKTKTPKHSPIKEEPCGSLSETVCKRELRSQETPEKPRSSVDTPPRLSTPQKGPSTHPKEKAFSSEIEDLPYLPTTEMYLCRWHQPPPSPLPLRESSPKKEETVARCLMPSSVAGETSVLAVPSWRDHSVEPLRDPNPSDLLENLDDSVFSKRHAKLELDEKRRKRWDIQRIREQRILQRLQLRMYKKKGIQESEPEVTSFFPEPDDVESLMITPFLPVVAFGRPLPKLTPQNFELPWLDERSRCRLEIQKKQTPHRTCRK
Put plainly: ITC. Conditions: apparent; dH 29 kcal/mol; DNA MW assumed (10^4 kDa); chemically damaged with etoposide; ITC: 10 mM acetate pH 4.5, 25 C, 0.03 mg/ml damaged DNA; CD/fluorescence: 50 mM acetate pH 4.5, 25 C, 20 uM protein; agarose gel: 2%, 1x TAE; NMR 25 C.

Data set [6] has as its target T1, Nupr1. Put plainly: ITC.

With “MSL1-V5 (pcDNA4-MSL1-V5) (from UniProt Q68DK7 1-614) (natural protein)”, in data set [1], the PLA dots (PLA combined with γ-H2AX staining, cisplatin) turned out to be 53 PLA dots; the PLA dots per nucleus (5 µM cisplatin) (dots PLA per nucleus) came to 32; the PLA dots per nucleus (10 µM cisplatin) (dots PLA per nucleus) came to 57.
Turning to “TRX-tagged MSL1 (His-tagged TRX-MSL1 fusion protein, human MSL1, 413-residue-long differentially spliced isoform) (natural protein)”, in data set [2], the Kd was 2800 nM and the dH is 39 kcal/mol.
On to etoposide-damaged DNA, for which the values for the Kd in data set [3], in data set [4] and in data set [5] were 400 nM, 800 nM and 1200 nM, respectively.

B1: MSL1 (protein)
chain: MTMRSAVFKAAAAPAGGNPEQRLDYERAAALGGPEDEPGAAEAHFLPRHRKLKEPGPPLASSQGGSPAPSPAGCGGKGRGLLLPAGAAPGQQEESWGGSVPLPCPPPATKQAGIGGEPAAAGAGCSPRPKYQAVLPIQTGSLVAAAKEPTPWAGDKGGAASPAATASDPAGPPPLPLPGPPPLAPTATAGTLAASEGRWKSMRKSPLGGGGGSGASSQAACLKQILLLQLDLIEQQQQQLQAKEKEIEELKSERDTLLARIERMERRMQLVKKDNEKERHKLFQGYETEEREETELSEKIKLECQPELSETSQTLPPKPFSCGRSGKGHKRKSPFGSTERKTPVKKLAPEFSKVKTKTPKHSPIKEEPCGSLSETVCKRELRSQETPEKPRSSVDTPPRLSTPQKGPSTHPKEKAFSSEIEDLPYLSTTEMYLCRWHQPPPSPLPLRESSPKKEETVARCLMPSSVAGETSVLAVPSWRDHSVEPLRDPNPSDLLENLDDSVFSKRHAKLELDEKRRKRWDIQRIREQRILQRLQLRMYKKKGIQESEPEVTSFFPEPDDVESLMITPFLPVVAFGRPLPKLTPQNFELPWLDERSRCRLEIQKKQTPHRTCRK
modifications: Nupr1 preformed complex with etoposide-damaged DNA
Take B1: in data set [6], the Kd turned out to be 800 nM.
